Assay results published in PMC5473146.

Tests used:
[1] = target: Dbp2 (Saccharomyces cerevisiae, UniProt P24783 1-546); test: fluorescence anisotropy
[2] = target: MBP-DDX5-GST (Homo sapiens, UniProt P17844 1-614); test: fluorescence anisotropy
Chain of MBP-DDX5-GST (P17844 whole entry): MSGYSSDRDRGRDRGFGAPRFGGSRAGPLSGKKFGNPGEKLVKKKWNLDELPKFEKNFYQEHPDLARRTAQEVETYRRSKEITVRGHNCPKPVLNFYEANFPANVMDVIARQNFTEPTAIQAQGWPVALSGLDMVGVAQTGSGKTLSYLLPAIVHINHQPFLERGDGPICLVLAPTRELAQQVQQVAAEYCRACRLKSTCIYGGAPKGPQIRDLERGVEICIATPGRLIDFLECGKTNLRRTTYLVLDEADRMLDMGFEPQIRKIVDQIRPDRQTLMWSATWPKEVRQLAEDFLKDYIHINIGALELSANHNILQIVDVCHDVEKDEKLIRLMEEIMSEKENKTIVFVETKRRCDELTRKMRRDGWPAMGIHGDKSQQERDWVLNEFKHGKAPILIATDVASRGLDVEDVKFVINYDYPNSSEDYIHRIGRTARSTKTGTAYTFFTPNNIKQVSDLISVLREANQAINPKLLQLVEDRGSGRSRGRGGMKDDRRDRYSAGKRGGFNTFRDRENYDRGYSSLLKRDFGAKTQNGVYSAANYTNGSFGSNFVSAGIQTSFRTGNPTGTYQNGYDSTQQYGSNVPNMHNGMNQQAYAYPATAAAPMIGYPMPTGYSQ

Chain of Dbp2 (P24783 whole entry): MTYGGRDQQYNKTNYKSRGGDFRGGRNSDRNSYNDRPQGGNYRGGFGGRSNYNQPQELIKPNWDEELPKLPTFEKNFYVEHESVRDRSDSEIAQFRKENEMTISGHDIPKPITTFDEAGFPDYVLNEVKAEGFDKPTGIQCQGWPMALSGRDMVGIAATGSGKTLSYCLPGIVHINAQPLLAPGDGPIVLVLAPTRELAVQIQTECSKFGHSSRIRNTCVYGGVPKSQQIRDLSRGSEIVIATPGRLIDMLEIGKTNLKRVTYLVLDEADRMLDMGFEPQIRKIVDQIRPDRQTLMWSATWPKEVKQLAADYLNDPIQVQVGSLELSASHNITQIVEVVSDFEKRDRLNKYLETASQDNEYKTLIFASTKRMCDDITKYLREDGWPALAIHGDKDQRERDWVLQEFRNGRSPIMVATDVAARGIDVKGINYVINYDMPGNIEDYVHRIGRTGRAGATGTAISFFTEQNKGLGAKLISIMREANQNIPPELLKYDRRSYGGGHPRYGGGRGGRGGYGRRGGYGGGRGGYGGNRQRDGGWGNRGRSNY

AGCACCGUAAAGACGC (ssRNA) [16-nt ssRNA (6-FAM)]
binding signal [1]: ~4 fold weaker than MBP-DDX5-GST
binding signal [2]: ~4 fold tighter than Dbp2
